Data on one molecule can be found in patent publication US20230183349A1.

This assay has as its target PD1 aglycosylated at Asn58 (human) (UniProt Q15116). Kind of assay: SPR Biacore T200, antibody captured by anti-human IgG, PD1-ECD as analyte, 25 °C, 1:1 Langmuir.

B1: PD1-0103-0312 (antibody, V domains shown)
VH: EVQLLESGGGLVQPGGSLRLSCAASGFSFSSYTMSWVRQAPGKGLEWVATISGGGRDIYYPDSVKGRFTISRDNSKNTLYLQMNSLRAEDTAVYYCVLLTGRVYFALDSWGQGTLVTVSS
VL: DIVMTQSPDSLAVSLGERATINCKASESVDTSDNSFIHWYQQKPGQSPKLLIYRSSTLESGVPDRFSGSGSGTDFTLTISSLQAEDVAVYYCQQNYDVPWTFGQGTKVEIK
As for B1, the Kd turned out to be 80.2 nM, the koff came to 0.027 s⁻¹ and the kon stood at 336000 M⁻¹ s⁻¹.
